These results are taken from article PMC3467072.

Broadly, the Kd is the concentration at which binding is half-saturated.

This data set addresses T1, Rv3066 (TetR-family regulator) (Mycobacterium tuberculosis H37Rv, UniProt I6X658 1-202).
T1 sequence: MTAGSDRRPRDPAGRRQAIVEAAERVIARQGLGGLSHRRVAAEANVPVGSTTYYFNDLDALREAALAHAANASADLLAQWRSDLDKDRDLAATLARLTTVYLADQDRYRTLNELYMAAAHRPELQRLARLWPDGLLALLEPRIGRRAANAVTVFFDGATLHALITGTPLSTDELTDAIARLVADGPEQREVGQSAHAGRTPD
Nature of the data set: fluorescence polarization. (Fluorescence polarisation rises when a labelled molecule tumbles more slowly, as on binding a larger partner.)

B1: 30-bp IR1 dsDNA, fluorescein (dsDNA)
DNA 1: CGAGCCTCCTTTGTGTACATTTGTACATGT
DNA 2: ACATGTACAAATGTACACAAAGGAGGCTCG
B1 yielded a dissociation constant (Kd) of 4.4 ± 0.3 nM.
